# Data as given in the supplement of paper PMC9732359.
# ± gives the uncertainty stated by the source.
# Test: protein stability index of a GFP-peptide fusion (yeast GPS) (PSI 1-4); higher = more stable; sorted into four equal gates, so the index is relative within each strain
# Conditions: doa10∆
# Outline: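 The protein stability index combines read frequencies across sorting gates, each weighted by its gate number and then summed. To obtain those frequencies, a pooled yeast library of GFP fusions to tiled 17-residue yeast protein peptides, on a plasmid also expressing Cherry, was grown to mid-log phase in leucine-free medium. The cells were sorted into four equal gates by GFP/Cherry ratio before plasmid amplification by PCR and Illumina sequencing.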
row,Sequence,protein stability index
1,VDESLLSTLPAGKSLVS [QCR2],2.65 ± 0.15
2,VDFIKHSLSQAIKWDGS [PRE3],1.75 ± 0.15
3,VDIRVGKKSSSSTKDYL [RET1],3.42 ± 0.29
4,VDKGAIMKNKDFILSLL [YJL039C/NUP192],2 ± 0.17
5,VDKSRKVAHTSYKRIYG [PRE8],3.31 ± 0.11
6,VDNTVPSTTLFNFGGKS [YOR098C/NUP1],1.75 ± 0.047
7,VDPFTRKEWFDIKAPST [RPS1A],2.38 ± 0.072
8,VDSGEERNEQEREIMND [SWI3],3.42 ± 0.069
9,VDSKTKEPVDDKDVKAK [FAS2],2.31 ± 0.24
10,VDSTFQKVSENFEAVFE [SMC3],3.32 ± 0.088
11,VDVAIPCNNRGKHSIGL [RPS0A],2.81 ± 0.096
12,VEDFLERRLQTQVYKLG [RPS9A],1.28 ± 0.071
13,VEDYLSSVTSDSMKYTI [RPC82],3.45 ± 0.22
14,VEELMKKRRGSRIYKTI [SNU114],1.86 ± 0.048
15,VEENRVRYTTSVMPPNE [DLS1],2.62 ± 0.055
16,VEFCGYSIPHPSENLLN [RPC19],2.7 ± 0.077
17,VEFCRNINSTDKSIDTS [YML103C/NUP188],3.08 ± 0.11
18,VEIVNYNVENQQYVAAG [FAS1],2.66 ± 0.17
19,VEKTLLSDVAFYVQDVY [RPO31],2.11 ± 0.22
20,VEKVATAVLSTTARAKA [RPN2],3 ± 0.12
21,VEQYKFRETTHSKRELD [BRR2],3.27 ± 0.072
22,VETILSGKARICIVGGY [FAS2],1.33 ± 0.24
23,VEVLLVNYNSDMIKCFL [NUT1],1.58 ± 0.1
24,VFDLCWNSLMYALQSVK [RRP43],2 ± 0.062
25,VFDTAITSWYENHNKGK [QCR9],2.49 ± 0.16

row,Sequence,protein stability index
1,VFIFPTSNWEIYKPLLF [SRB8],2.15 ± 0.06
2,VFNNGIVVLVPKFGVEG [DIS3],2.22 ± 0.073
3,VFQDNVYKIYNHVMPLK [SIN4],1.65 ± 0.07
4,VGQLNKVVDQLFEKASV [RPN6],2.5 ± 0.063
5,VGSEKVLQDLRLGSKKL [YJL039C/NUP192],3.34 ± 0.13
6,VGSLVVKSSMGPAFRLY [RPL1A],3.07 ± 0.059
7,VGVHIADVTHFVKPGTA [DIS3],2.51 ± 0.055
8,VGVIGPLHSGKTSLMDL [SNU114],2.97 ± 0.11
9,VGVSHTNEEVRNMAEEF [CYT1],2.85 ± 0.13
10,VHPGANYLLKRNEDARR [RPO31],3.21 ± 0.067
11,VHRITDEEASYKLGKVK [RPS4A],3.01 ± 0.087
12,VIANPKGEMKGSAITGP [RPL23A],3.19 ± 0.13
13,VIEMKRCFENLQNKSFK [UBP6],3.33 ± 0.15
14,VIGLDSEHDKKRLSAAL [YML103C/NUP188],3.5 ± 0.23
15,VIKTLTVDVSSPTENGV [RPL22B],2.3 ± 0.14
16,VILGDANSSTIRVTNSF [RPN8],3.01 ± 0.092
17,VILQSDLEEAYATQVKT [RPT3],2.2 ± 0.1
18,VINIAKAHPNFPIALQW [FAS1],2.82 ± 0.1
19,VIQQDKYQKALHYLKKF [SRP72],1.61 ± 0.098
20,VITLAEYEKRNHGGSLG [SRP68],3.42 ± 0.11
21,VITNLFSAIPFVGNDIV [COB],3.14 ± 0.05
22,VIWSEDNDEKLIIRCRV [RPO21],3.34 ± 0.15
23,VKAQRPITGASLDLIKE [RPL24A],2.42 ± 0.062
24,VKDKEEDHIFFKYIYEL [YDL116W/NUP84],1.34 ± 0.07
25,VKEMEPKQSDEYLKRVS [SIR3],2.69 ± 0.056

row,Sequence,protein stability index
1,VKKQKSARGIETRPAQV [FAS2],2.77 ± 0.1
2,VKLYGREGSSARTIKAT [RPB2],2.47 ± 0.12
3,VKNVKNSDLEFNTFWDE [ARP9],3.08 ± 0.088
4,VKRIQSVPLVIGQFLEP [RPT3],1.58 ± 0.064
5,VKRLLFTIRGFKQKLNE [MTW1],3.04 ± 0.058
6,VKVNHNEKRYATASAIA [RPL4A],2.29 ± 0.1
7,VLALKVEDFLERRLQTQ [RPS9A],2.42 ± 0.14
8,VLDIVPGSSITETEVER [SRB4],3.04 ± 0.13
9,VLETHESGIKPYFEQKI [RPT6],2.33 ± 0.21
10,VLFAAYKVEHPFFARFK [RPB11],2.71 ± 0.089
11,VLIFFQMTQIMDIMEDF [SNF2],1.67 ± 0.083
12,VLKESIVNICDIQEEQV [PUP1],3.15 ± 0.22
13,VLLTFLQDELHKVSSQS [YCS4],3.54 ± 0.17
14,VLLVLPFTDRSVVRGNT [COB],3.11 ± 0.14
15,VLQDLRLGSKKLVEIIW [YJL039C/NUP192],3.25 ± 0.1
16,VLQKVIEWAEHHRDSNF [SKP1],3.08 ± 0.078
17,VLRLNAIPLLKVLRKFR [NUT1],1.98 ± 0.052
18,VLRPFLLRRLKKDVEKE [SNF2],2.8 ± 0.13
19,VLRRLLAKYRDAGKIDK [RPL19A],3.29 ± 0.18
20,VLSTEEILNIFKHISVK [RPO21],2.68 ± 0.13
21,VLVLRGTLEGHNGWVTS [ASC1],2.75 ± 0.15
22,VLVSSVTEANIIKLVEG [RPS12],2.52 ± 0.12
23,VLYHTSGAITFVNETPR [PRP8],2.06 ± 0.06
24,VMEYDVKFYEIFNFDQL [SRB8],1.97 ± 0.11
25,VMSSDDENAPVATNANA [PRE10],3.27 ± 0.18

row,Sequence,protein stability index
1,VNAIKNEVKEWAVTLDT [DSN1],3.11 ± 0.13
2,VNDFSDITSDQLLQRLN [SMC3],2.56 ± 0.055
3,VNDKYKTCAEVIGGNSL [SMC3],3.06 ± 0.14
4,VNEENDSYIALYEKDIV [RET1],2.6 ± 0.064
5,VNESRNSDDIIDVDMDA [SRB5],2.27 ± 0.065
6,VNFTEIGGLIPQWKRHL [YCS4],3.46 ± 0.25
7,VNGSTTAGVGSTPNFGG [SIN4],3.58 ± 0.079
8,VNGVPLRRVNARYVIAT [RPL6A],1.61 ± 0.095
9,VNLDNTAVGKAAVVKTS [RPT5],3.16 ± 0.064
10,VNLENPIPIAVLDSYTP [FAS1],1.42 ± 0.046
11,VNLSQEALQYDPQPFLK [SNU114],2.99 ± 0.056
12,VNQDSTYKYFEVILVDP [RPL15A],3.21 ± 0.068
13,VPISTSQTNNSFLSGVK [SIR4],2.56 ± 0.054
14,VPKSIAKTLTYPEVVTP [RPO21],2.51 ± 0.05
15,VPNILSLDMNSMNKELI [NUT1],2.14 ± 0.075
16,VPVTKLGRLVKAGKITT [RPS2],3.13 ± 0.091
17,VQARDNSQVFGVARIYA [RPS14B],2.39 ± 0.074
18,VQFGLNEETFTVPELEI [ARP9],3.17 ± 0.076
19,VQGELKPTVILKLLKEN [FAS1],2.36 ± 0.17
20,VQIGAEIILDFLQDKVQ [CSI1],3.03 ± 0.085
21,VQMAKILRKELSEEKEV [MCD1],3.37 ± 0.21
22,VQPPLDKFPYKKLELPK [SWP82],2.79 ± 0.074
23,VRATFRNNLPAKTFGAS [RPL33A],2.85 ± 0.097
